Reference: publication PMC12282080 (2025)

Assays:
[1] = molecular target: T1, SFTSV Gn glycoprotein (G19-K452, C3 genotype) (SFTSV (severe fever with …)); assay: BLI
[2] = molecular target: T1, SFTSV Gn glycoprotein (G19-K452, C3 …); assay: BLI; remark: listed apart in the source

B1: SD4-X monoclonal antibody (human IgG1) (antibody, V domains shown)
VH: QVQLVESGGGVVQPGRSLRLSCAASGFTFSSYGMHWVRQAPGKGLEWVAVISYDGSNKYYADSVKGRFTISRDNSKNTLYLQMNSLRAEDTAVYYCAKDRDYYGSGFFDYWGQGTLVTVSS
VL: DIQMTQSPSSLSASVGDRVTITCQASQDISNHLNWYQEKPGKVPKLLIYEASNVETGVPSRFSGSGSGTDFTFTISSLQPEDIATYYCQQYDNLPYTFGQGTKLEIK
[1]
  koff: 0.000108 s⁻¹
[2]
  Kd: 1110 pM

B2: SD12 monoclonal antibody (human IgG1) (antibody, V domains shown)
VH: EVQLLESGGGLVQPGGSLRLSCAASGFIFSSYAMSWVRQAPGKGLEWVSAISGSGGSTYYADSVKGRFTISRDNSKNTLYLQMNSLRDEDTAVYYCAKDRSYVSSGFFDDWGQGTLVTVSS
VL: DIQMTQSPSSLSASVGDRVTITCQASQDISNYLNWYQQRPGKAPKLLIFEASNLETGVPSRFSGSGSGTDFTFTISSLQPEDIATYYCQQYENLLYTFGQGTKLEIK
[1]
  koff: 0.000179 s⁻¹
[2]
  Kd: 2370 pM

B3: SD4 monoclonal antibody (human IgG1) (antibody, V domains shown)
VH: QVQLVESGGGVVQPGRSLRLSCAASGFPFSGYGMHWVRQAPGKGLEWVAVISYDGSEKNYADSVKGRFTISRDNSKNTLYLQMNSLRVEDTAVYYCAKDRDYYGSGFYDYWGQGTLVTVSS
VL: DIQMTQSPSSLSASVGDRVTITCQASQHISNHLNWYQQKPGTAPTLLIYEASNLETGVPSRFSGSGSGTDFSFTISSLRPEDFATYYCQQYDNFPLTFGPGTTMDIK
[1]
  koff: 1.18e-05 s⁻¹

B4: SD4-S monoclonal antibody (human IgG1) (antibody, V domains shown)
VH: QVQLVESGGGVLQPGRSLRLSCAASGFTFSGYGMHWVRQAPGKGLEWVAVISYDGSEKNYGDSVKGRFTISRDNSKNTLYLQINSLRTEDRAVYYCAKDRDYFGSGFFDYWGQGTLVTVSS
VL: DIQMTQSPSSLSASVGDRVTITCQASQDITKYLNWYQQKPGKAPKLLIFEASNLETGVPSRFSGSGSGTDFTFTISSLQPEDFATYYCQQYGDFPLTFGGGTKVEIK
[1]
  koff: 2.9e-05 s⁻¹
[2]
  Kd: 196 pM

B5: SD22 monoclonal antibody (human IgG1) (antibody, V domains shown)
VH: QVQLVESGGGVVQPGRSLRLSCAASGFTFSGFGMHWVRQAPGKGLEWVALISYDGSDTYYSDSVKGRFTISRDNSKNTLYLQLKSLRPDDTAVYYCVGDRDYFGSGFFDHWGQGTLVTVSS
VL: DIQMTQSPSSLSASIGDRVTITCRASRHITNHLNWYQHKPGRAPKLLIYEASNLQAGVPSRFSGSGSGTDFTFTISSLQPEDFATYYCQQYDNLPPAFGGGTKVDIK
[1]
  koff: 4.01e-05 s⁻¹
[2]
  Kd: 205 pM
